Experimental data published in the domain aggregation screens of Martell et al. (2025).

assay: soluble fraction after stress (log2 fold change); higher = more stays soluble; pooled small domains, quantitative proteomics; conditions: stress: 50 degC
In short: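 The measure of aggregation propensity here is the base-two logarithm of the fold change in the soluble amount of each protein after stress. A higher value means more of that protein stays in solution. Stress was applied at 50°C to pooled libraries of small protein domains, read out by high-throughput quantitative proteomics.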

Row | Sequence | soluble fraction (log2)
1 | HMRSREGVRWIIRERIMEELQERHHMDDGELLEMIDRSIGEMGQEIFLPLKERIWLRGSLFDSFR | -3.1
2 | HMSSVMMPDLTGESAIVAMERLQQLGLLPKVEEVDSYREPGIVLEQLPRAGEKIKRGRIAILKVSS | -0.26
3 | HMGGQEEALNRLVLRELLGTLEKKERDLIVRRYFYDQTQTKIAEALGISQVQVSRMEKRILKKMREGF | -0.914
4 | HMNPLSELSFEERRELFLEAAVRLFEEKGYKNTSVEDIAGELGFTKKVFYYYWKNKREIVQEIHDRGMA | -0.479
5 | HMYGHKLDSYESYVVSELRRWPFLSAPQIHDRLKEHFSDLPLVTPKTVFNFVNRLRLTHSLPKE | -3.13
6 | HMKKTETVRFTTNVTHGTKIKETDVEVVKISNSALPDKVVKNKTEVIGKYATADLFKGDFATENKVTD | 0.0533
7 | HMASQVERGAVVVTDQRIFFIGVSSEGIEVHGTKIFGMSEKAPLYSHMKGLKKGDSFQFNGLKYVIQDIY | -3.39
8 | HMSKPTLTDELLTLDLFEEIIKAKENAKGANKRFSLVGFLESKYIVDQEMLPKVNVKVTEYYNLTREN | -0.117
9 | HMKYPVYLQLADLIERKINKNEYPLGSKIPSERELIDAFGISRMTVRKAIEVLIEKGLLTRQHGKGTYVSQ | -1.29
10 | HMRMTLKNKVEDIVHILRKDKQTSLSAILGDNTDRIQTIVVFLAILELVKQHLIKTDQNANFGDINLFPED | -0.0677
11 | HMQDRDKNIEEGRQLVLHEMDRLDLVDEPLHDVARQLNMKAVEDMFAAVGAGDLRLGQIIHQLLKQADTN | -0.0442
12 | HMTALISGNKAMQMLELSRHSFEKIVKDGLLSIVHEGDKKYYEIGEVEAFMGSDTYKELVNGV | -0.345
13 | HMATMSIDERILEIRSRAGLTQQEMADRLFVTRQAVSRWERGETVPGIDTLRLIAEAFDVRVDQILEL | -1.69
14 | HMDTVSYMSDAVKAGAVTPSHDEEARARYLLYAGFGAILLFLRYEASEPGDIESAIREFMERYGPVTAELY | 0.243
15 | HMARTLSVTVSENYANMRLDSFLFESGLYPSRSKAVKQIESGKVFVNGNEPTKKTIVVANDFIVYEEYAEE | -1.06
16 | HMPLQLPEPMAELARNGETARLAEALKQGLDIDLRDGKGNTLLMIAAYQGRAETVAMLLKAGA | -1.71
17 | HMVDGAHKQQAAVQALTPALKVLAAAPEGKKGQAIQALRAVLKQHGRWLDDATAQQVHEQLLAAGDAQGWQ | 0.297
18 | HMRKIKEVLRLKFETGFSHERIAAAVGVSKGAVTKYVQRAVAAGLGWPLAPERDDAALEALLFPH | ≥ 0.62
19 | HMFERINLIGVNGTTKKRSALVRLLDGEIVKIGVGDSLNGGQVVDISPATLTYLKSGKSIMLTLPK | -1.03
20 | HMQTLQTTSLRVSENQLFILDQQALPQEKRWLAADNVALLVDHIHTLRVRGAPLIGLSASLLLALLAGRLT | -0.0766
21 | HMGIDAIDNFVSKIIMKIEGLGESEVPTSTIGKFIMEGLQYLDTVAYVRYASVYKNFKEAKDFEQFVGSL | -0.179
22 | HMPKPMKATKITLQQEPRIRVDFTYDPLKVQQIKTISGARWSKSLKAWHIPYTKEAFNQLKKLFPNVEIEV | -0.166
23 | HMNALTEAESKLLERMNKAGIHAEITTKKAAGILQRSENGARTVLNSLVKKGYLTVETNKAPYIYHLH | -0.11
24 | HMLLFNVADIVKRAKRVLNFKTDAELAAYLGVSRPTLSNWIARNGIDFPLLLEKLKEIDYNWLLVGKGKPE | -2.33
25 | HMITEQEFQRVAAYVKNKAGINLNEKKVLVQGRLDSYMQRKGYSSYDEFMDRVERFPTGPEAEDLMNALTT | 0.0575
26 | HMTVVPNIVNQPEAAGTNLLISSNLKPGNRAVQYSDTVKAGDIISQSPEPGAQATLGGKVDYVISQGPAPT | 0.165
27 | HMTNLTPKQQQIYQFIRASTQANGYPPTLREIGQQVGVRSPSTVKYHLDNLRTLGLLHWDGGKTRSITLP | -0.372
28 | HMRQQAFWALVPEERDVLDETGAPLFRIGPTAWALVIEDRGEVFVVRDEDGRVGYLHEVDGVTR | -1.52

Row | Sequence | soluble fraction (log2)
29 | HMNLFNEIEKQYQALQDRSSASLVDLRHLLLDIEELVNSPDYQALAPDQRSTLQAARKELMRRIQKQEN | 0.213
30 | HMKRQDFEFLVNLLRQNAGWDFDEEQYFVVDKKISNFIREKGYASVEDLIDELKVGAKPLISQVVESLAL | -0.622
31 | HMTVSADQTAADAVIKLINAIGTVSENSGSAISAARSGYDALTDTQKKLVTNYNKLTQAEQVFSSLPS | 0.203
32 | HMKTKKYKGVYKDSKGKIYFQIELGVDPITGKRIQKKGRKNQQGLPFNSFKEAYEEILRLKHEFVNSTIN | -2.69
33 | HMPVFYATNRQKTTIHNLKRKKGLDDDAYRATIYSFTHGRTDSSKYMYKYEAAELIQKWLDPE | -1.7
34 | HMGKAPREVQVGELLRVPALNAEGEVLRRDGESVELSIQGKKLRLPLAQLEAFSPRRFARRGEGKVRGRIE | 0.432
35 | HMGDKVTIPNLIDMKLTDAQNQYKPQGFSIVKNGERESDKEAGTILEQDKAAGTEISGKDIRIFVVVSSGS | -0.00368
36 | HMVRDPYELLEVPREATPDEIKSAFRKLAARHHPDRNPDDPGAQERFKEINAAYQLLSDPQKRAMFDRFGA | 0.169
37 | HMAVTGRVDLRIKPWGYVSVDGAAKVSSPPTMQLKLAPGRHEIEITNPAGAAVTKTVDVIAGKSVTVQHN | 0.0967
38 | HMAESSLPKMPRDESKYIYHSVQPGETVYSLSKRYSVSESDIVKSNPGIDITKLSLGLEVAIPRI | 0.354
39 | HMNNTIKFSVDIKNSGKRLDIFLSENVTQYTRSYLKRLIENSHVKLNNKILNSPSTKVKFQDQIIINNIE | -1.91
40 | HMSWRWVPVSGAYTTSALEAAGLTRAFDDQAAAEEWLGLFFDDLLREGVGEVSLYEEDRLVYGPMSL | -3.1
41 | HMKSNESAELGERMLNKALLALHTDSSKISDTQWQKLLRDYGAKNKQEILTDIGLGKRLNVMVAHQLMAMG | -0.0795
42 | HMPLIPIAIELARHALPSLIGAIAGDKSEKVAKEVVDAALKTTGKTTPDEALHALQADPQLAHEYRLSLL | 0.287
43 | HMQPKKLNMYYDYVRQLLESHPYLSAAQIEDRLKEEFTELPMVHSKTVFNFVENIRLQHGINKHA | -0.152
44 | HMPASDPNEKQILRFLTEHQVITRKETQALLDVSQSTAGRVLKAMVDNGQIKQLGGSRNTRYELPM | -0.183
45 | HMKEFIPPVLDDVLKFFSGSLLPDWENQGRLFFSHYNSQGWRKGTGVQVTDWDSLANKWILDEKIKRDARS | -0.263
46 | HMEVTYQETLRVLYNAIDKLPPQTKEIILIGLDGKDNNEIAATLNISVNTVKTLKKNAYKTLRELLVD | -0.157
47 | HMEKIDYLSIGHRLRAYRIASSLKAEDVAESLGISRAAVYRLEKGEIVKIETLDNLARLLNTSLSSLLG | -2.94
48 | HMGNKWALLVVFILNENGSTRFNQLARQIPDISTKVLSNTLQILEADGLVKRTVFPEVPIRVEYELTATGK | -3.64
49 | HMGTDVFIMTGGTRKRGATWSYYFDLGKIDGKRQKKEKGGFKTKKEAETALAKAINEYNNAGA | -0.0903
50 | HMNVESLVGKQVIVSETIDNLKATGQVKVNGLEWTARAADETDIIPQGTEVTINEVSGVKLIVSR | 0.241
51 | HMDKLNKELVSRMMDDAAWKELSKDFPWTEQLLEKYMNYVDWKEISRNYNVVWTKSLLEKFKHRLDWHE | -1.44
52 | HMNEVRINTAHIEHKYLGEVKVLDIQEMRNARGRDADPLAFLAIRFWSPRGVLVRVKDSRDATPYWLIS | 0.3
53 | HMNVGKRLKSLREKYKFSLEEVAKKIKSSAGAISRYENNERKINSESLIRLSNLYNVSPEYILYG | 0.0449
54 | HMDSPALAIPSSAILRDGLEHIFFRQDPSDPDQVIRVVADLGLSDGRWTVVRSGLERTDQVVLSGA | 0.0102
55 | HMRPEFVVALSGADLGKLHRLYELGEVLSREDDAEGVTHAVLRVPDKHEHAFHAEFPQARPM | 0.378
